Measured values as given in patent US20190248902A1 (published 2019).
Positions count from the first letter of the chain named.

T1: Cyno ASGR-1 (cynomolgus monkey, UniProt P07306 1-291 (human entry))
T1 construct: Expressed on HEK 293 cells or as membrane prep on beads; cDNA from XP_005582755; also called cynomologus monkey ASGR-1
T1 chain: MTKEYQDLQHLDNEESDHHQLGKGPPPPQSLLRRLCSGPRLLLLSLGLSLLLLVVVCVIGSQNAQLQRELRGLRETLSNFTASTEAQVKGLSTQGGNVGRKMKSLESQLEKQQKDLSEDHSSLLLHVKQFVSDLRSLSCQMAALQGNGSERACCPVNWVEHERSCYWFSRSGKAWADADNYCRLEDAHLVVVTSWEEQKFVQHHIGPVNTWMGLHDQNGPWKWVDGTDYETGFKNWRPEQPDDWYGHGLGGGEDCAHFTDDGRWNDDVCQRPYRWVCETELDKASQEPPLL

T2: Dog ASGR-1 (dog)
T2 construct: Expressed on HEK 293 cells or as membrane prep on beads; cDNA GenBank XM_546579
T2 chain: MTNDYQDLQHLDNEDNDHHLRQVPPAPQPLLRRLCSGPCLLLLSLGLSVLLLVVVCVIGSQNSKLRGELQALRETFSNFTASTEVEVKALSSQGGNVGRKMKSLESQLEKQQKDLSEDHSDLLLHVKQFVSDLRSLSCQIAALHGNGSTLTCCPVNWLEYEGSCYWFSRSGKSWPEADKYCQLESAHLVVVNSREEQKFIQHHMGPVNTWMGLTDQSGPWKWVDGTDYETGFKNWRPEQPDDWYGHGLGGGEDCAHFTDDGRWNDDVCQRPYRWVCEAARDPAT

T3: Pig ASGR-1 (pig)
T3 construct: Expressed on HEK 293 cells or as membrane prep on beads; cDNA GenBank NM_001244458
T3 chain: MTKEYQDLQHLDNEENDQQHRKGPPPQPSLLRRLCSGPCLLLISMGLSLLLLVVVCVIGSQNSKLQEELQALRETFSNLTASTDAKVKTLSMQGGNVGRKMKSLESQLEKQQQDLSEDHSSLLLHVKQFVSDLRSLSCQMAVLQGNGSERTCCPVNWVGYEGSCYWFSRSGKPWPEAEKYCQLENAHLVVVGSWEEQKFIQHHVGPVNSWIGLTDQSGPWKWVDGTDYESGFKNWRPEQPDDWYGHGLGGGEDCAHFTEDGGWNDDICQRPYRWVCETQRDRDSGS

T4: Rat ASGR-1 (rat, UniProt P02706 1-284)
T4 construct: Expressed on HEK 293 cells or as membrane prep on beads; cDNA GenBank NM_012503
T4 sequence: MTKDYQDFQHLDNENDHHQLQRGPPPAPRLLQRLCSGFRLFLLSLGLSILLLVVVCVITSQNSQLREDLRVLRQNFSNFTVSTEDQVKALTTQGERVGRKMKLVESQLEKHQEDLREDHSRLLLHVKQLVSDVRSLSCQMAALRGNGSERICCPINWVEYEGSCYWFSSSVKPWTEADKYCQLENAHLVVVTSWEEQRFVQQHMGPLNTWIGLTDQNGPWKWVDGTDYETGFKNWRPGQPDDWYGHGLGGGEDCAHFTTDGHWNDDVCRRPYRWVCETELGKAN

B1: 193E7 (antibody, V domains shown)
VH: QVQLQQWGAGLLKPSETLSLTCAVYGGSFSGYFWTWIRQPPGKGLEWIGEINHSGSTNYNPSLKSRVTISVDTSKNQFSLKLSSVTAADTAVYYCARDYGADYWGQGTLVAVSA
VL: DIQMTQSPSSLSASVGDRVTITCRASQGIRNDLGWYQQKPGKAPKRLIYSASSLQRGVPSRFSGSGSGTEFTLTISSLQPEDFATYYCLQHKRYPLTFGGGTKVEIK
notes: Tested as hybridoma supernatant at normalized concentration
B2: 5E5 (antibody, V domains shown)
VH: QVQLVESGGGVVQPGRSLRLSCAASGFTFSNYVMHWVRQAPGKGLEWVAVIWYDGSNKYYADSVKGRFTISRDNSKNTLYLQMNSLRAEDTAVYYCTREVYSSGWYDYGMDVWGQGTTVTVSS
VL: B1 VL with S50A, R56S, K92Y, R93S, L96R, G100Q, I106V
notes: as for B1
B3: 4A2 (antibody, V domains shown)
VH: QVQLVQSGTEVKKPGASVKVSCKASGYTFTNYDINWVRQATGQGLEWMGWMHPNSGNTGYAQKFQGRVTLTRNTSISTAYMELSSLRSEDTAVYYCASSSGWYYFDYWGQGTLVTVSS
VL: DIVMTQSPDSLAVSLGERATINCKSSQSILHSSNNNNYLAWFQQKPGQPPKLLLYWASTRESGVPDRFSGSGSGTDFTLTISSLQPEDVAVYYCQQYYNTPVTFGPGTKVGIK
notes: as for B1
B4: 6G7 (antibody, V domains shown)
VH: QVQLVESGGGVVQPGRSLRLSCAASGFTFSSYGMHWVRQTPGKGLEWVAIISYVGKNKYYADSVKGRFTISRDNSKNTLYLQMNSLRAEDTAVYYCARRGNSYGGYGMDVWGQGTTVTVSS
VL: DIQMTQSPSSRSASVGDRVTITCQASQDISNYLNWCQQKPGKALKLLIYDASTLETGVPSRFSGSGSGTDFTFTISSVQPEDIATYYCQQYDNVPITFGQGTRLEIK
notes: as for B1
B5: 22G5 (antibody, V domains shown)
VH: EVQLLESGGGLVQPGGSLRLSCAASGFTFSSYAMNWVRQAPGMGLEWVSVISRSGGYTYYADSVKGRFTISRDNSKNTLYLQMNSLRAEDTAVYYCASRLAVAGSEAFDIWGQGTLVTVSS
VL: DIQMTQSPSSLSASVGDRVTITCRASQNISSYLNWYQQKQGKAPKLLIYAASSLQNGVPSRFSGRGSGTDFTLTISSLQPEDFATYYCQQSYRTPLFTFGPGTKVDFK
notes: as for B1
B6: 54E9 (antibody, V domains shown)
VH: QVQLVQSGAEVKKPGASVKVSCKASGYTFNSYGISWVRLAPGQGLEWMGWISAYNGNTKNAQKLQGRVTMTTDTSTSTAYMELRSLRSDDTAVYYCARHDFWSGYYKGMDVWGQGTTVTVSS
VL: not shown
notes: as for B1
B7: 4H6 (antibody, V domains shown)
VH: QVQLVQSGAEVKKPGASVKVSCKASGYTFTDYYLHWVRQAPGQGLEWMGWIHPNSGGTNYAQKFQGRVTMTRDTSISTAYMGLSSLRSDDTAVYYCARDGTSSFDYWGQGTLVTVSS
VL: DIQMTQSPSSVSASVGDRVTITCRASQGISRWLAWYQQKPGKAPKLLIYGASSLQSGVPSRFSGSGSGTDFTLTISSLQPEDFAIYYCQQANSFPFTFGPGTKVDIK
notes: as for B1

What was measured:
Cyno ASGR-1 = molecular target: T1, Cyno ASGR-1; test: FACS on transfected HEK 293 cells or membrane preps on beads; Y = signal at least 2x irrelevant IgG
Outline: (§1)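 Antibodies at normalized concentrations bound 1 h at 4° C to HEK 293 cells expressing each antigen, then Alexa Fluor 647 anti-Fc plus 7-AAD 15 min at 4° C, flow cytometry; empty-vector cells as negative. Alternatively, species ASGR-1 membrane preps on streptavidin beads, antibody 1 h RT, Alexa Fluor 488 anti-Fc; FACS buffer with 1 mM CaCl2 throughout.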

Dog ASGR-1 [1] = molecular target: T2, Dog ASGR-1; test: as above
Outline: as §1

Pig ASGR-1 [2] = molecular target: T3, Pig ASGR-1; test: FACS on transfected HEK 293 cells or membrane preps on beads; binding = signal at least 2x irrelevant IgG
Outline: as §1

Rat ASGR-1 [3] = molecular target: T4, Rat ASGR-1; test: as above
Outline: as §1

Rat ASGR-1 [4] = molecular target: T4, Rat ASGR-1; test: FACS on transfected HEK 293 cells or membrane preps on beads; Y = signal at least 2x irrelevant IgG
Outline: as §1

Dog ASGR-1 [5] = molecular target: T2, Dog ASGR-1; test: FACS on transfected HEK 293 cells or membrane preps on beads; binding = signal at least 2x irrelevant IgG
Outline: as §1

Pig ASGR-1 [6] = molecular target: T3, Pig ASGR-1; test: FACS on transfected HEK 293 cells or membrane preps on beads; Y = signal at least 2x irrelevant IgG
Outline: as §1

Binder | binding result (Cyno ASGR-1) | binding result (Dog ASGR-1 [1]) | binding result (Pig ASGR-1 [2]) | binding result (Rat ASGR-1 [3]) | binding result (Rat ASGR-1 [4]) | binding result (Dog ASGR-1 [5]) | binding result (Pig ASGR-1 [6])
B1 | binds | binds | no binding | no binding | – | – | –
B2 | binds | – | no binding | – | binds | no binding | –
B3 | binds | – | – | – | binds | no binding | binds
B4 | binds | – | no binding | – | binds | no binding | –
B5 | binds | – | no binding | no binding | – | no binding | –
B6 | binds | binds | no binding | no binding | – | – | –
B7 | binds | – | – | – | binds | no binding | binds
